Experimental data published in patent US20040235744A1.
Like-named read-outs stand apart in the source and are kept apart here.

What was measured:
Des-Arg^1-BK = test system: T1, Des-Arg^1-BK
T1 sequence: PPGFSPFA

BK fragment 2-7 = test system: T2, BK fragment 2-7
T2 sequence: PPGFSP

Met-Lys-BK = test system: T3, Met-Lys-BK
T3 sequence: MKRPPGFSPFR

[1] = test system: bradykinin (Arg-Pro-Pro-Gly-Phe-Ser-Pro-Phe-Arg)
Ile-Ser-BK = test system: T4, Ile-Ser-BK
T4 sequence: ISRPPGFSPFR

Cit^1-BK = test system: T5, Cit^1-BK
T5 sequence: XPPGFSPFR

BK fragment 1-7 = test system: T6, BK fragment 1-7
T6 sequence: RPPGFSP

[Lys^1]-BK = test system: T7, [Lys^1]-BK
T7 sequence: KPPGFSPFR

BK fragment 1-5 = test system: T8, BK fragment 1-5
T8 sequence: RPPGF

Lys-BK = test system: T9, Lys-BK
T9 sequence: KRPPGFSPFR

[2] = target: nNOS-II (novel constitutive neuronal nitric oxide synthase purified from rat cerebellum) (rat); experiment: enzyme inhibition kinetics on purified nNOS-II, competitive against BK as substrate, oxyhemoglobin assay, EZ-FIT
[3] = target: nNOS-II (novel constitutive neuronal nitric oxide synthase purified from rat cerebellum) (rat); experiment: as above; remark: listed apart in the source

Substance	Relative activity (%) as substrate, L-arginine = 100% (Des-Arg^1-BK) [%]	Relative activity (%) as substrate, L-arginine = 100% (BK fragment 2-7) [%]	Relative activity (%) as substrate, L-arginine = 100% (Met-Lys-BK) [%]	Relative activity (%) as substrate, L-arginine = 100% [1] [%]	apparent KM (NOS activity, oxyhemoglobin assay) [1]	apparent Vmax (NOS activity, oxyhemoglobin assay) [1]	Relative activity (%) as substrate, L-arginine = 100% (Ile-Ser-BK) [%]	apparent KM (NOS activity, oxyhemoglobin assay) (Cit^1-BK)	apparent Vmax (NOS activity, oxyhemoglobin assay) (Cit^1-BK)	Relative activity (%) as substrate, L-arginine = 100% (Poly-arginine (Mr 5,000)) [%]	Relative activity (%) as substrate, L-arginine = 100% (BK fragment 1-7) [%]	Relative activity (%) as substrate, L-arginine = 100% ([Lys^1]-BK) [%]	Relative activity (%) as substrate, L-arginine = 100% (BK fragment 1-5) [%]	Relative activity (%) as substrate, L-arginine = 100% (Lys-BK) [%]	Ki [2] [µM]	Ki [3] [µM]
nNOS-II (novel constitutive neuronal nitric oxide synthase purified from rat cerebellum)	94	0	0	125	Apparent KM values for BK and Cit^1-BK were 8.5 and 6.2 µM, respectively	apparent Vmax values for BK and Cit^1-BK were 1.2 and 1.6 µmol/min/mg protein, respectively	110	Apparent KM values for BK and Cit^1-BK were 8.5 and 6.2 µM, respectively	apparent Vmax values for BK and Cit^1-BK were 1.2 and 1.6 µmol/min/mg protein, respectively	30	80	113	61	116	–	–
[N-adamantaneacetyl-D-Arg^0, Hyp^3, Thi^5,8, D-Phe^7]-BK (peptide)	–	–	–	–	–	–	–	–	–	–	–	–	–	–	2500	2.5
